Measurements from the supplement of paper PMC7877785.
± gives the uncertainty stated by the source.

Experiment: self-splicing fitness, log relative to wild type (ln ratio); higher = more splicing; Tetrahymena group I intron in knt gene, E. coli kanamycin selection, DiMSum; sequences stand for … in CUCUCU…GGAGGGAAAAGUUAUCAGGCAUGCACCUGGUAGCUAGUCUUUAAACCAAUAGAUUGCAUCGGUUUAAAAGGCAAGACCGUCAAAUUGCGGGAAAGGGGUCAACAGCCGUUCAGUACCAAGUCUCAGGGGAAACUUUGAGAUGGCCUUGCAAAGGGUAUGGUAAUAAGCUGACGGACAUGGUCCUAACCACGCAGCCAAGUCCUAAGUCAACAGAUCUUCUGUUGAUAUGGAUGCAGUUCACAGACUAAAUGUCGGUCGGGGAAGAUGUAUUCUUCUCAUAAGAUAUAGUCGGACCUCUCCUUAAUGGGAGCUAGCGGAUGAAGUGAUGCAACACUGGAGCCGCUGGGAACUAAUUUGUAUGCGAAAGUAUAUUGAUUAGUUUUGGAGUACUCGUGGUCG
Outline: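 The eight P1ex-region nucleotides of an intron in the knt kanamycin-resistance gene on pET-22b(+) were all randomised and the library put into E. coli BL21(DE3). Six replicate transformations were grown overnight at 37°C or 30°C on LB agar with or without 25 μg/mL kanamycin, together with 100 μg/mL carbenicillin, 50 μM IPTG and 0.2% rhamnose. Colonies were pooled and amplicon-sequenced on an Illumina HiSeq 2500. Fitness from DiMSum is the error-weighted combination of wild-type-normalised replicate fold changes, kanamycin over none.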

CUGAAGCAAUAUUACGCCUU
self-splicing fitness (ln) (30 °C): -4.07 ± 0.33
self-splicing fitness (ln) (37 °C): -2.33 ± 0.31

CUGAAGCAAUAUUACGGGCC
self-splicing fitness (ln) (30 °C): -3.65 ± 0.32

CUGAAGCAAUAUUACGGGCG
self-splicing fitness (ln) (30 °C): 0.0611 ± 0.06
self-splicing fitness (ln) (37 °C): -0.103 ± 0.074

CUGAAGCAAUAUUACGUAAC
self-splicing fitness (ln) (37 °C): -1.22 ± 0.24

CUGAAGCAAUAUUACGUACC
self-splicing fitness (ln) (30 °C): -3.37 ± 0.36

CUGAAGCAAUAUUACGUAGC
self-splicing fitness (ln) (30 °C): -4.07 ± 0.28
self-splicing fitness (ln) (37 °C): -3.43 ± 0.24

CUGAAGCAAUAUUACGUAUA
self-splicing fitness (ln) (30 °C): -2.8 ± 0.18
self-splicing fitness (ln) (37 °C): -2.19 ± 0.27

CUGAAGCAAUAUUACGUCAU
self-splicing fitness (ln) (30 °C): -1.03 ± 0.093
self-splicing fitness (ln) (37 °C): -0.736 ± 0.12

CUGAAGCAAUAUUACGUCCA
self-splicing fitness (ln) (30 °C): -1.93 ± 0.25

CUGAAGCAAUAUUACGUCGC
self-splicing fitness (ln) (30 °C): -3.18 ± 0.16
self-splicing fitness (ln) (37 °C): -1.55 ± 0.22

CUGAAGCAAUAUUACGUGCA
self-splicing fitness (ln) (30 °C): -3.96 ± 0.27
self-splicing fitness (ln) (37 °C): -2.82 ± 0.25

CUGAAGCAAUAUUACGUGGC
self-splicing fitness (ln) (30 °C): -1.58 ± 0.077
self-splicing fitness (ln) (37 °C): -0.491 ± 0.099

CUGAAGCAAUAUUACGUGUG
self-splicing fitness (ln) (30 °C): -0.196 ± 0.046
self-splicing fitness (ln) (37 °C): -0.0989 ± 0.067

CUGCAGCAAUAUUACGAACG
self-splicing fitness (ln) (30 °C): 0.237 ± 0.087
self-splicing fitness (ln) (37 °C): -0.269 ± 0.08

CUGCAGCAAUAUUACGAAGA
self-splicing fitness (ln) (30 °C): -1.62 ± 0.23
self-splicing fitness (ln) (37 °C): -2.17 ± 0.27

CUGCAGCAAUAUUACGAAUG
self-splicing fitness (ln) (30 °C): -0.593 ± 0.066
self-splicing fitness (ln) (37 °C): -0.0469 ± 0.081

CUGCAGCAAUAUUACGAUCA
self-splicing fitness (ln) (30 °C): -3.57 ± 0.29
self-splicing fitness (ln) (37 °C): -2.5 ± 0.2

CUGCAGCAAUAUUACGAUUC
self-splicing fitness (ln) (37 °C): -2.05 ± 0.2

CUGCAGCAAUAUUACGCAUC
self-splicing fitness (ln) (37 °C): -2.46 ± 0.3

CUGCAGCAAUAUUACGCCAA
self-splicing fitness (ln) (37 °C): -1.67 ± 0.18

CUGCAGCAAUAUUACGCCCG
self-splicing fitness (ln) (30 °C): -0.269 ± 0.098
self-splicing fitness (ln) (37 °C): 0.148 ± 0.13

CUGCAGCAAUAUUACGCCGG
self-splicing fitness (ln) (30 °C): -2.55 ± 0.19
self-splicing fitness (ln) (37 °C): -1.56 ± 0.29

CUGCAGCAAUAUUACGCGGC
self-splicing fitness (ln) (37 °C): -2.63 ± 0.34

CUGCAGCAAUAUUACGCGUC
self-splicing fitness (ln) (30 °C): -3.98 ± 0.35
self-splicing fitness (ln) (37 °C): -2.05 ± 0.32

CUGCAGCAAUAUUACGCUGC
self-splicing fitness (ln) (30 °C): -2.88 ± 0.29

CUGCAGCAAUAUUACGGAUA
self-splicing fitness (ln) (30 °C): -3.58 ± 0.29
self-splicing fitness (ln) (37 °C): -2.69 ± 0.25

CUGCAGCAAUAUUACGGAUU
self-splicing fitness (ln) (30 °C): -3.49 ± 0.18
self-splicing fitness (ln) (37 °C): -1.8 ± 0.16

CUGCAGCAAUAUUACGGCUU
self-splicing fitness (ln) (30 °C): -4.37 ± 0.36
self-splicing fitness (ln) (37 °C): -2.23 ± 0.28

CUGCAGCAAUAUUACGGGCU
self-splicing fitness (ln) (30 °C): -4.01 ± 0.17
self-splicing fitness (ln) (37 °C): -1.81 ± 0.17

CUGCAGCAAUAUUACGUACC
self-splicing fitness (ln) (30 °C): -3.22 ± 0.19
self-splicing fitness (ln) (37 °C): -2.68 ± 0.44

CUGCAGCAAUAUUACGUAGC
self-splicing fitness (ln) (30 °C): -2.66 ± 0.15
self-splicing fitness (ln) (37 °C): -1.95 ± 0.18

CUGCAGCAAUAUUACGUCUU
self-splicing fitness (ln) (30 °C): -3.15 ± 0.11
self-splicing fitness (ln) (37 °C): -2.64 ± 0.12

CUGCAGCAAUAUUACGUGUG
self-splicing fitness (ln) (30 °C): -1.65 ± 0.043
self-splicing fitness (ln) (37 °C): -1.27 ± 0.06

CUGCAGCAAUAUUACGUUAG
self-splicing fitness (ln) (30 °C): -2.97 ± 0.1
self-splicing fitness (ln) (37 °C): -1.19 ± 0.1

CUGCAGCAAUAUUACGUUGA
self-splicing fitness (ln) (30 °C): -3.42 ± 0.2
self-splicing fitness (ln) (37 °C): -3.21 ± 0.24

CUGCAGCAAUAUUACGUUGG
self-splicing fitness (ln) (30 °C): -2.82 ± 0.14
self-splicing fitness (ln) (37 °C): -3.09 ± 0.27

CUGCAGCAAUAUUACGUUUG
self-splicing fitness (ln) (30 °C): -2.61 ± 0.094
self-splicing fitness (ln) (37 °C): -0.958 ± 0.098

CUGGAGCAAUAUUACGACGG
self-splicing fitness (ln) (30 °C): -3.79 ± 0.38
self-splicing fitness (ln) (37 °C): -3.09 ± 0.43

CUGGAGCAAUAUUACGAGUU
self-splicing fitness (ln) (30 °C): -2.26 ± 0.13
self-splicing fitness (ln) (37 °C): -3.51 ± 0.33

CUGGAGCAAUAUUACGAUAU
self-splicing fitness (ln) (30 °C): -2.36 ± 0.35
self-splicing fitness (ln) (37 °C): -2.54 ± 0.41

CUGGAGCAAUAUUACGCAAG
self-splicing fitness (ln) (30 °C): -2.82 ± 0.21
self-splicing fitness (ln) (37 °C): -2.08 ± 0.27

CUGGAGCAAUAUUACGCAUG
self-splicing fitness (ln) (30 °C): -2.07 ± 0.13
self-splicing fitness (ln) (37 °C): -0.898 ± 0.17
